Source: publication PMC5605622, “Agdc1p – a Gallic Acid Decarboxylase Involved in the Degradation of Tannic Acid in the Yeast Blastobotrys (Arxula) adeninivorans” (Frontiers in Microbiology, 2017)

Legend:
purified protein [1] = substrate: O=C(O)c1cc(O)c(O)c(O)c1; experiment: purified protein; assay type: biochemical, Blastobotrys adeninivorans; conditions: 50 mM potassium phosphate pH 6.2, 40 °C
purified protein [2] = substrate: O=C(O)c1ccc(O)c(O)c1; experiment: purified protein; assay type: biochemical, Blastobotrys adeninivorans; conditions: 50 mM potassium phosphate pH 6.2, 40 °C

B1: Agdc1-6hp (Agdc1p, gallic acid decarboxylase) (Blastobotrys adeninivorans) (protein)
chain: MTTSYEPWPQLYSHLNGTNEEVLDRMKVAELCKGWSVYRDASEWANFKEMFTPDANIWTTWSGAQTIDSFIQISKDGKDKGAFIMHRECGTLVDLNPKTQRAIGKMKTTITQRFEYEGVPFDIDCDNYFIFFCLKDSNGDWKARWYKVFYVKDKFVPVGVPTAENMEKLAKLFSKENLEQYPWGYQYLAVAQANLGYPIDKKLPTWKNELYHTMYDAMKEWMEGKEIDLHW
notes: full-length ORF (696 bp, 232 residues as printed), C-terminal 6xHis tag kept, expressed in A. adeninivorans G1212, IMAC purified
Km (purified protein [1]): 700 ± 200 µM | kcat (purified protein [1]): 42.0 ± 8.2 s⁻¹ | Km (purified protein [2]): 3200 ± 200 µM | kcat (purified protein [2]): 44.0 ± 3.4 s⁻¹
